Data published in patent US20100158890A1, “USE OF THROMBIN MUTANTS TO INHIBIT THE ANTICOAGULATION EFFECT OF THROMBIN INHIBITORS” (priority 2006, published 2010).

Assays:
[1] = system: whole blood; assay: Thrombelastography (TEG) of clot formation in recalcified whole blood; format: biochemical, human; conditions: for effect on TEG amplitude (strength of clot): anticoagulant alone: bivalirudin 5 μg/ml, lepirudin 1 μg/ml, argatroban 0.5 μg/ml
Method: (§1) For plasma collection, whole blood samples (5 ml, in 3.2% trisodium citrate) were obtained after institutional approval and informed written consent from 6 volunteers that had not received any medication in the preceding 2 weeks. For APTT and thrombin generation experiments blood was centrifuged to obtain platelet poor plasma (PPP) for 20 min at 3000×g. PPP was used immediately or stored for not more than a couple of days at −20° C. For TEG® measurements, whole blood in citrate was used after recalcification within 5 min from collection. In all experiments, the final concentration of recombinant thrombin mutant was 5 μg/ml.
The viscoelastic measurement of clot formation was evaluated using Thrombelastogarphy (TEG®, Haemoscope, Niles, Ill.). […] For TEG® measurements, 360 μl aliquots of the samples were transferred to disposable cups containing […] 0.4 M CaCl2. Effects of W215A/E217A on TEG® variables were evaluated after adding this thrombin mutant (5 μg/ml, final concentration) to respective samples. The TEG® variables, the reaction time (in minutes) which represents the onset of clot formation, and maximum amplitude (in mm) which reflects the strength of clot were compared for different groups (Kawasaki et al. (2004) Anesthesia & Analgesia, 99:1440-1444).

[2] = system: platelet-poor plasma; assay: Thrombin generation monitoring by Thrombinoscope in platelet-poor plasma; format: biochemical, human; conditions: for effect on onset and peak of thrombin generation: anticoagulant alone in plasma
Method: Fluorogenic substrate (Z-Gly-Gly-Arg-AMC HCl, molecular weight 616.07) for thrombin generation assay was obtained from Bachem (Switzerland). HEPES (N-2-hydroxyethyl piperazine-N′-2-ethanesulfonic acid), CaCl2, BSA (bovine serum albumin) and DMSO (dimethyl sulfoxide) were from Sigma (Sigma, St Louis, Mo.). Tissue factor was dissolved in 10 ml sterile water and then further diluted with working HEPES buffer (20 mM HEPES, 140 mM NaCl, 5 mg/ml BSA), (1:75). For the preparation of Fluca-buffer 1.75 ml HEPES buffer (pH 7.35, 20 mM HEPES, 60 mg/ml BSA was added to 0.2 ml of 1 M CaCl2 in a glass test tube, mixed, and warmed up for few minutes at 37° C. Just before use 50 μl of 100 mM fluorogenic substrate made in DMSO was added to the HEPES-CaCl2 solution and mixed to dissolve. This buffer now contains 2.5 mM substrate and 100 mM CaCl2.
as §1
In order to evaluate this complex regulation of thrombin generation, the Thrombinoscope® system, which enables automated acquisition of thrombin generation time courses in platelet-rich plasma or in platelet-poor plasma (Hemker et al. (2003) Pathophysiology of Haemostasis & Thrombosis, 33:4-15). The method for the automated estimation of endogenous thrombin potential using a commercially available fluorogenic substrate (Z-GlyGly-Arg-AMC) has been described in detail elsewhere (Hemker et al. (2003) Pathophysiology of Haemostasis & Thrombosis, 33:4-15). Briefly, for the thrombin generation experiments, 80 μl of PPP, and 20 μl of the thrombin generation trigger are added to wells of 96-well microtiter plate (Microfluor2, Labsystems, Finland), followed by 20 μl of substrate-calcium chloride buffer. The reaction is monitored using microplate fluorometer (Fluoroskan Ascent, Labsystems, Finland) set at 390 nm (excitation wavelength) and 460 nm (emission wavelength). […] Additionally, heparin (0.2 or 0.5 U/ml) was also evaluated. Heparin reversal with an appropriate concentration of protamine was used for comparison (1 mg of protamine for each 100 units (1 mg) of heparin). To evaluate the effects of the thrombin mutant on protein C activation (Regnault et al. (2003) Thrombosis and Haemostasis, 89:208-212), soluble thrombomodulin (0.75 μg/ml, final concentration) was added to the sample plasma containing the thrombin mutant.

[3] = off-pump coronary surgery, cited from earlier work
[4] = target: α-thrombin (Homo sapiens, UniProt P00734); conditions: association constant for α-thrombin and inhibitor; cited from earlier work
[5] = system: bivalirudin (Angiomax, Medicines Company)
[6] = system: lepirudin (Refludan, Berlex)

Q: What does the source list for CC1CNc2c(cccc2S(=O)(=O)N[C@@H](CCCNC(=N)N)C(=O)N2CC[C@@H](C)C[C@@H]2C(=O)O)C1 (stereo partly drawn) [Argatroban, argatroban]?
A: effect on TEG amplitude (strength of clot) [1]: reduced; effect on onset and peak of thrombin generation [2]: prolonged the onset and reduced the peak; peak thrombin level ([2]; argatroban at 0.5 and 1 μg/ml, with W215A/E217A added (FIG. 6D)): > 100 nM

Q: Which results are given for Protamine sulfate?
A: reversal of heparin on TEG (onset, clot strength) ([1]; protamine sulfate 5 μg/ml, heparin 0.5 U/ml): restores the onset completely, and to a lesser extent clot strength; effect on thrombin generation in the presence of heparin ([2]; heparin 0.2 U/ml, W215A/E217A 5 μg/ml or protamine sulfate 2 μg/ml): reversed the peak level

Q: Which “range of blood loss” value ([3]; n=50) does the source give for bivalirudin here?
A: 320-4,909 ml

Q: And the “12-hour post-operative chest tube drainage, median” value [3]?
A: 793 mL

Q: What about the “effect on TEG amplitude (strength of clot)” value [1] of the same compound?
A: minimally affected

Q: And the kon [4]?
A: 430 10^6 M^−1s^−1

Q: And the “effect on onset and peak of thrombin generation” value [2]?
A: prolonged the onset of thrombin generation, but not the peak level

Q: With “catalytic-site blocked thrombin (thrombin saturated with Phe-Pro-Arg-chlormethylketone)” as the compound, how does the “activated partial thromboplastin time (APTT) in bivalirudin-treated plasma” value [5] read?
A: The active site blocked thrombin (FPR-TH) had no effect on APTT prolonged with either DTIs or heparin.

Q: And the “activated partial thromboplastin time (APTT) in lepirudin-treated plasma” value [6]?
A: The active site blocked thrombin (FPR-TH) had no effect on APTT prolonged with either DTIs or heparin.

Q: With human thrombin mutant W215A/E217A as the compound, how does the “TEG reaction time and amplitude in bivalirudin-treated whole blood” value [5] read?
A: With addition of W215A/E217A (5 µg/ml), both reaction time and amplitude variables were reversed to normal for all DTIs

Q: And the “activated partial thromboplastin time (APTT) in bivalirudin-treated plasma” value [5]?
A: The addition of W215A/E217A to plasma shifted APTT values toward normal ranges.

Q: What about the “onset (latency) of thrombin generation, Thrombinoscope, bivalirudin-treated plasma” value [5] of the same compound?
A: W215A/E217A was effective in shortening prolonged latency of thrombin generation.

Q: What about the “TEG reaction time and amplitude in lepirudin-treated whole blood” value [6] of the same compound?
A: With addition of W215A/E217A (5 µg/ml), both reaction time and amplitude variables were reversed to normal for all DTIs

Q: And the “activated partial thromboplastin time (APTT) in lepirudin-treated plasma” value [6]?
A: The addition of W215A/E217A to plasma shifted APTT values toward normal ranges.

Q: And the “onset (latency) of thrombin generation, Thrombinoscope, lepirudin-treated plasma” value [6]?
A: W215A/E217A was effective in shortening prolonged latency of thrombin generation.

Q: What does the source list for lepirudin?
A: effect on TEG amplitude (strength of clot) [1]: minimally affected; kon [4]: 290 10^6 M^−1s^−1; effect on onset and peak of thrombin generation [2]: prolonged the onset of thrombin generation, but not the peak level
